Data reported in patent US20260250320A1, “LIPIDATED PEPTIDE INHIBITORS OF INTERLEUKIN-23 RECEPTOR” (Janssen Pharmaceutica NV, priority 2023, published 2026).
*1 amine or outer side, *2 acyl side, *3 side chain or, on linkers, in order; H or OH if unused. Bridges are numbered along the chain shown (N, C = ends). Primed or numbered codes have the meaning given here. Where no end group is shown, it is not given here. Side-chain parts run from the residue outwards. [ ]: non-standard residue; d: D form. The star is where a group is joined. code d = side-chain group of K(d): lysine given as (2R)-2-(4-((5-amino-5-carboxypentyl)amino)-4-oxobutanamido)-3-carboxy-N,N,N-trimethylpropan-1-aminium, C[N+](C)(C)C[C@@H](CC(=O)O)NC(=O)CCC(=O)*; code d″ = lysine side-chain amide of a carnitine-succinyl group ((2R)-3-carboxy-N,N,N-trimethylpropan-1-aminium amide; PEG2′ = PEG2 spacer unit (not further defined); Trp(7-Me) = Cc1cccc2c(C[C@H](N)C(=O)O)c[nH]c12; γGlu = O=C(O)[C@H](CCC(=O)[*:2])N[*:1]; 2Nal = N[C@@H](Cc1ccc2ccccc2c1)C(=O)O; AEF = NCCOc1ccc(C[C@H](N)C(=O)O)cc1; 3Pal = N[C@@H](Cc1cccnc1)C(=O)O; succiniccarn = not defined here; NMeK = CN[C@@H](CCCCN)C(=O)O; NMecPEG3a = not defined here; Pen = CC(C)(S)[C@H](N)C(=O)O; NMeC18OH = not defined here; PEG2″ = PEG2 spacer unit; dAEF′ = not defined here; Thp = NC1(C(=O)O)CCOCC1; Sar = CNCC(=O)O

T1: interleukin-23 receptor (IL-23R) (UniProt Q5VWK5 24-629, limits assumed)
T1 sequence (looked up): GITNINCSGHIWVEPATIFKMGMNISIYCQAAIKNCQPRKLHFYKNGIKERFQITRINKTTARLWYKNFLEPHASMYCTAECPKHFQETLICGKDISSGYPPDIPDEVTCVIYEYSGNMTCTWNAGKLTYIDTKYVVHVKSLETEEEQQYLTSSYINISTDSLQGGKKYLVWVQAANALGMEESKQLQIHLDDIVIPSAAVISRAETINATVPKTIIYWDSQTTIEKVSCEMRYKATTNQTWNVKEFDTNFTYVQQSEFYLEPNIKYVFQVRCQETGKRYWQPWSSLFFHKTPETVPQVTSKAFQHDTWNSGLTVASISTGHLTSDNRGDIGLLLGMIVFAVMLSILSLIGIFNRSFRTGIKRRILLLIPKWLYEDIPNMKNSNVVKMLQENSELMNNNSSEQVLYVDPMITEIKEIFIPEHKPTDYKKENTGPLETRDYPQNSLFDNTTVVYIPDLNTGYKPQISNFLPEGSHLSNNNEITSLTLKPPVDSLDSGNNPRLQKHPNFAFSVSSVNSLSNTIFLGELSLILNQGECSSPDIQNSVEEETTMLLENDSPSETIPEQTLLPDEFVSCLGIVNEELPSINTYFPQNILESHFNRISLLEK


Biological target: T1, interleukin-23 receptor (IL-23R)
Test: cell-based or functional assay

| Binder | PBMC pSTAT3 IC50 |
| --- | --- |
| [dR][Pen]NT[Trp(7-Me)]K(Ac)[Pen][AEF][2Nal][Thp]K(code d)N[3Pal][Sar]-NH2 (disulfide 2-7 (inferred); not fully specified (N-terminus); printed as HOC18gEPEG2PEG2CO-r-Pen(3)-N-T-7MeW-K(Ac)-Pen(3)-AEF-2Nal-THP-K(d)-N-3Pya-Sar-CONH2) [SEQ ID NO: 45] | < 0.5 nM |
| succiniccarn-[dR][Pen]NT[Trp(7-Me)]K(Ac)[Pen][AEF][2Nal][Thp]K([PEG2″-PEG2″-γGlu-C18OH])N[3Pal][Sar]-NH2 (disulfide 2-7 (inferred); reading uncertain; also: printed as succiniccarn-r-Pen(3)-N-T-7MeW-K(Ac)-Pen(3)-AEF-2Nal-THP-K(PEG2PEG2gEC18OH)-N-3Pya-Sar-CONH2) [SEQ ID NO: 49] | < 0.5 nM |
| XNTXXXXXXXNXXK (MeCO-Pen(3)-N-T-7MeW-K(Ac)-Pen(3)-AEF-2Nal-THP-K(d)-N-3Pya-Sar-K(PEG2PEG2gEC18OH)-CONH2) [SEQ ID NO: 50] | < 0.5 nM |
| Ac-[dR][Pen]K(code d″)T[Trp(7-Me)]K(Ac)[Pen][AEF][2Nal][Thp]EN[3Pal][Sar]K([PEG2″-PEG2″-γGlu-C18OH])-NH2 (disulfide 2-7 (inferred)) [SEQ ID NO: 53] | < 0.5 nM |
| succiniccarn-[dR][Pen]NT[Trp(7-Me)]K(Ac)[Pen][AEF][2Nal][Thp]EN[3Pal][NMeK]([PEG2′-PEG2′-γGlu-C18OH])-NH2 (disulfide 2-7 (inferred); reading uncertain; also: printed as succiniccarn-r-Pen(3)-N-T-7MeW-K(Ac)-Pen(3)-AEF-2Nal-THP-E-N-3Pya-NMeK(PEG2PEG2gEC18OH)-CONH2) [SEQ ID NO: 31] | < 0.5 nM |
| Ac-[dR][Pen]NT[Trp(7-Me)]K(code d″)[Pen][AEF][2Nal][Thp]EN[3Pal][Sar]K([PEG2″-PEG2″-γGlu-C18OH])-NH2 (disulfide 2-7 (inferred)) [SEQ ID NO: 52] | < 0.5 nM |
| Ac-[dR][Pen]NT[Trp(7-Me)]K(Ac)[Pen][dAEF′][2Nal][Thp]EN[3Pal][Sar]K([PEG2′-PEG2′-γGlu-C18OH])-NH2 (disulfide 2-7 (inferred); reading uncertain; also: printed as MeCO-r-Pen(3)-N-T-7MeW-K(Ac)-Pen(3)-AEF(d)-2Nal-THP-E-N-3Pya-Sar-K(PEG2PEG2gEC18OH)-CONH2) [SEQ ID NO: 23] | < 0.5 nM |
| Ac-[dR][Pen]NT[Trp(7-Me)]K[Pen][AEF][2Nal][Thp]EN[3Pal]X-NH2 (disulfide 2-7 (inferred); not fully specified (residues 6, 14); printed as MeCO-r-Pen(3)-N-T-7MeW-K(PEG2PEG2gEC18OH)-Pen(3)-AEF-2Nal-THP-E-N-3Pya-NMeK(d)-CONH2) [SEQ ID NO: 19] | < 0.5 nM |
| Ac-[dR][Pen]NT[Trp(7-Me)]K(Ac)[Pen][AEF][2Nal][Thp]K(code d)N[3Pal][NMeK]([PEG2′-PEG2′-γGlu-C18OH])-NH2 (disulfide 2-7 (inferred)) [SEQ ID NO: 41] | < 0.5 nM |
| {C18OH-γGlu-PEG2′-PEG2′}-[dR][Pen]NT[Trp(7-Me)]K(Ac)[Pen][dAEF′][2Nal][Thp]EN[3Pal][Sar]-NH2 (disulfide 2-7 (inferred); reading uncertain; also: printed as HOC18gEPEG2PEG2CO-r-Pen(3)-N-T-7MeW-K(Ac)-Pen(3)-AEF(d)-2Nal-THP-E-N-3Pya-Sar-CONH2) [SEQ ID NO: 32] | < 0.5 nM |
| Ac-[dR][Pen]NT[Trp(7-Me)]K(code d)[Pen][AEF][2Nal][Thp]K([PEG2′-PEG2′-γGlu-C18OH])N[3Pal][Sar]-NH2 (disulfide 2-7 (inferred)) [SEQ ID NO: 48] | < 0.5 nM |
| succiniccarn-[dR][Pen]NT[Trp(7-Me)]K([PEG2′-PEG2′-γGlu-C18OH])[Pen][AEF][2Nal][Thp]EN[3Pal][Sar]-NH2 (disulfide 2-7 (inferred); reading uncertain; also: printed as succiniccarn-r-Pen(3)-N-T-7MeW-K(PEG2PEG2gEC18OH)-Pen(3)-AEF-2Nal-THP-E-N-3Pya-Sar-CONH2) [SEQ ID NO: 20] | < 0.5 nM |
| Ac-[dR][Pen]NT[Trp(7-Me)]K([PEG2′-PEG2′-γGlu-C18OH])[Pen][dAEF′][2Nal][Thp]EN[3Pal][Sar]-NH2 (disulfide 2-7 (inferred); reading uncertain; also: printed as MeCO-r-Pen(3)-N-T-7MeW-K(PEG2PEG2gEC18OH)-Pen(3)-AEF(d)-2Nal-THP-E-N-3Pya-Sar-CONH2) [SEQ ID NO: 36] | < 0.5 nM |

More lines, now with the values ahead:

| PBMC pSTAT3 IC50 | Binder |
| --- | --- |
| < 0.5 nM | Ac-[dR][Pen]NT[Trp(7-Me)]K([PEG2″-PEG2″-γGlu-C18OH])[Pen][AEF][2Nal][Thp]EN[3Pal][Sar]-NH2 (disulfide 2-7) [SEQ ID NO: 59] |
| < 0.5 nM | Ac-[dR][Pen]NT[Trp(7-Me)]K([PEG2′-PEG2′-γGlu-C18OH])[Pen][AEF][2Nal][Thp]K(NMecPEG3a)N[3Pal][Sar]-NH2 (disulfide 2-7 (inferred); reading uncertain; also: printed as MeCO-r-Pen(3)-N-T-7MeW-K(PEG2PEG2gEC18OH)-Pen(3)-AEF-2Nal-THP-K(NMecPEG3a)-N-3Pya-Sar-CONH2) [SEQ ID NO: 79] |
| < 0.5 nM | Ac-[dK]([PEG2″-PEG2″-γGlu-C18OH])[Pen]NT[Trp(7-Me)]K(Ac)[Pen][AEF][2Nal][Thp]EN[3Pal][Sar]-NH2 (disulfide 2-7) [SEQ ID NO: 58] |
| < 0.5 nM | [dR][Pen]NT[Trp(7-Me)]K([PEG2″-PEG2″-C18OH])[Pen][AEF][2Nal][Thp]EN[3Pal][Sar]-NH2 (disulfide 2-7 (inferred); not fully specified (N-terminus); printed as 5cpaCO-r-Pen(3)-N-T-7MeW-K(PEG2PEG2C18OH)-Pen(3)-AEF-2Nal-THP-E-N-3Pya-Sar-CONH2) [SEQ ID NO: 71] |
| < 0.5 nM | Ac-[dR][Pen]NT[Trp(7-Me)]K(Ac)[Pen][AEF][2Nal][Thp]EN[3Pal][NMeK]([PEG2′-NMePEG2-NMegE-NMeC18OH])-NH2 (disulfide 2-7 (inferred); reading uncertain) [SEQ ID NO: 80] |
| < 0.5 nM | [dR][Pen]NT[Trp(7-Me)]K([PEG2″-PEG2″-C18OH])[Pen][AEF][2Nal][Thp]EN[3Pal][Sar]-NH2 (disulfide 2-7 (inferred); not fully specified (N-terminus); printed as cPEG3aCO-r-Pen(3)-N-T-7MeW-K(PEG2PEG2C18OH)-Pen(3)-AEF-2Nal-THP-E-N-3Pya-Sar-CONH2) [SEQ ID NO: 72] |
| < 0.5 nM | XNTXXXXXXKNXX (cPEG3aCO-Pen(3)-N-T-7MeW-K(Ac)-Pen(3)-AEF-2Nal-THP-K(PEG2PEG2gEC18OH)-N-3Pya-Sar-CONH2) [SEQ ID NO: 78] |
| < 0.5 nM | [dR][Pen]K([PEG2″-PEG2″-γGlu-C18OH])T[Trp(7-Me)]K(Ac)[Pen][AEF][2Nal][Thp]EN[3Pal][Sar]-NH2 (disulfide 2-7 (inferred); not fully specified (N-terminus); printed as cPEG3aCO-r-Pen(3)-K(PEG2PEG2gEC18OH)-T-7MeW-K(Ac)-Pen(3)-AEF-2Nal-THP-E-N-3Pya-Sar-CONH2) [SEQ ID NO: 55] |
| < 0.5 nM | [dR][Pen]K([PEG2″-PEG2″-γGlu-C18OH])T[Trp(7-Me)]K(Ac)[Pen][AEF][2Nal][Thp]EN[3Pal][Sar]-NH2 (disulfide 2-7 (inferred); not fully specified (N-terminus); printed as 5cpaCO-r-Pen(3)-K(PEG2PEG2gEC18OH)-T-7MeW-K(Ac)-Pen(3)-AEF-2Nal-THP-E-N-3Pya-Sar-CONH2) [SEQ ID NO: 73] |
| < 0.5 nM | XNTXXXXXXKNXX (5cpaCO-Pen(3)-N-T-7MeW-K(Ac)-Pen(3)-AEF-2Nal-THP-K(PEG2PEG2gEC18OH)-N-3Pya-Sar-CONH2) [SEQ ID NO: 77] |
| < 0.5 nM | succiniccarn-[dR][Pen]NT[Trp(7-Me)]K(Ac)[Pen][AEF][2Nal][Thp]EN[3Pal][Sar]K([PEG2″-PEG2″-γGlu-C18OH])-NH2 (disulfide 2-7 (inferred); reading uncertain; also: printed as succiniccarn-r-Pen(3)-N-T-7MeW-K(Ac)-Pen(3)-AEF-2Nal-THP-E-N-3Pya-Sar-K(PEG2PEG2gEC18OH)-CONH2) [SEQ ID NO: 54] |
